Experimental data from patent US20230301998A1 (SANFORD BURNHAM PREBYS MEDICAL DISCOVERY INSTITUTE, published 2023).

How the values were obtained:
Assay in all cases: Flag IP of Flag-SHARPIN from WM115 lysate, on-bead tryptic digestion, LC/MS-MS
PARP1 = target: T1, PARP1 (human, UniProt P09874 2-1014)
T1 construct: endogenous protein co-purified from WM115 lysate
Procedure: (§1) To identify SHARPIN-interacting proteins, WM115 cells were transfected with Flag-tagged SHARPIN or control empty plasmid. Cell lysates were prepared using 1% Triton X-100 buffer [50 mM Tris-HCl, pH7.4, 1% (v/v) Triton X-100, 150 mM NaCl, 1 mM EDTA, and protease and phosphatase inhibitor cocktails (Thermo Fisher Scientific)]. Lysates were pre-cleared with protein A/G beads (Santa Cruz Biotechnology) for 1 h at 4° C. followed by immunoprecipitation using FLAG-M2-agarose beads (Sigma-Aldrich) overnight at 4° C. Beads were then washed with lysis buffer and TBS containing lx protease inhibitor cocktail before being subjected to on-bead tryptic digestion followed by mass spectrometry. In Vitro Methylation Assay.

PKM = target: T2, PKM (human, UniProt P14618 2-531, limits assumed)
T2 construct: endogenous protein co-purified from WM115 lysate
T2 sequence (P14618 2-531 limits assumed): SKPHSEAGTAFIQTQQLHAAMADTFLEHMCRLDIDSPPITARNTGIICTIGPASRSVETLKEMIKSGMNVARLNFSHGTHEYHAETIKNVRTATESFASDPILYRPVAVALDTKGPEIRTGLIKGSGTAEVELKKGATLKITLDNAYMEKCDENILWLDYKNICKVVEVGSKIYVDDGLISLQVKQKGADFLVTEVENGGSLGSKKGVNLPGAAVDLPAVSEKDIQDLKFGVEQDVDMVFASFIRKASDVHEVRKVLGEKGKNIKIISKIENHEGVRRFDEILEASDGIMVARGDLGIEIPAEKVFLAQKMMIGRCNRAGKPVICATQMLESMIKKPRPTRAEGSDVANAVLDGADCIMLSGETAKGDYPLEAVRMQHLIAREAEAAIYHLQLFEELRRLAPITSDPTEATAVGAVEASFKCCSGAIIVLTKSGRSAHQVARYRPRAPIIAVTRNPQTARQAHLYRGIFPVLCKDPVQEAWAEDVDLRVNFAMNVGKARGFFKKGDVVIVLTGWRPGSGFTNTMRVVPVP
Procedure: as §1

MYH9 = target: T3, MYH9 (human, UniProt P35579 2-1960)
T3 construct: endogenous protein co-purified from WM115 lysate
Procedure: as §1

FASN = target: T4, FASN (human, UniProt P49327 1-2511)
T4 construct: endogenous protein co-purified from WM115 lysate
T4 sequence (P49327 whole entry): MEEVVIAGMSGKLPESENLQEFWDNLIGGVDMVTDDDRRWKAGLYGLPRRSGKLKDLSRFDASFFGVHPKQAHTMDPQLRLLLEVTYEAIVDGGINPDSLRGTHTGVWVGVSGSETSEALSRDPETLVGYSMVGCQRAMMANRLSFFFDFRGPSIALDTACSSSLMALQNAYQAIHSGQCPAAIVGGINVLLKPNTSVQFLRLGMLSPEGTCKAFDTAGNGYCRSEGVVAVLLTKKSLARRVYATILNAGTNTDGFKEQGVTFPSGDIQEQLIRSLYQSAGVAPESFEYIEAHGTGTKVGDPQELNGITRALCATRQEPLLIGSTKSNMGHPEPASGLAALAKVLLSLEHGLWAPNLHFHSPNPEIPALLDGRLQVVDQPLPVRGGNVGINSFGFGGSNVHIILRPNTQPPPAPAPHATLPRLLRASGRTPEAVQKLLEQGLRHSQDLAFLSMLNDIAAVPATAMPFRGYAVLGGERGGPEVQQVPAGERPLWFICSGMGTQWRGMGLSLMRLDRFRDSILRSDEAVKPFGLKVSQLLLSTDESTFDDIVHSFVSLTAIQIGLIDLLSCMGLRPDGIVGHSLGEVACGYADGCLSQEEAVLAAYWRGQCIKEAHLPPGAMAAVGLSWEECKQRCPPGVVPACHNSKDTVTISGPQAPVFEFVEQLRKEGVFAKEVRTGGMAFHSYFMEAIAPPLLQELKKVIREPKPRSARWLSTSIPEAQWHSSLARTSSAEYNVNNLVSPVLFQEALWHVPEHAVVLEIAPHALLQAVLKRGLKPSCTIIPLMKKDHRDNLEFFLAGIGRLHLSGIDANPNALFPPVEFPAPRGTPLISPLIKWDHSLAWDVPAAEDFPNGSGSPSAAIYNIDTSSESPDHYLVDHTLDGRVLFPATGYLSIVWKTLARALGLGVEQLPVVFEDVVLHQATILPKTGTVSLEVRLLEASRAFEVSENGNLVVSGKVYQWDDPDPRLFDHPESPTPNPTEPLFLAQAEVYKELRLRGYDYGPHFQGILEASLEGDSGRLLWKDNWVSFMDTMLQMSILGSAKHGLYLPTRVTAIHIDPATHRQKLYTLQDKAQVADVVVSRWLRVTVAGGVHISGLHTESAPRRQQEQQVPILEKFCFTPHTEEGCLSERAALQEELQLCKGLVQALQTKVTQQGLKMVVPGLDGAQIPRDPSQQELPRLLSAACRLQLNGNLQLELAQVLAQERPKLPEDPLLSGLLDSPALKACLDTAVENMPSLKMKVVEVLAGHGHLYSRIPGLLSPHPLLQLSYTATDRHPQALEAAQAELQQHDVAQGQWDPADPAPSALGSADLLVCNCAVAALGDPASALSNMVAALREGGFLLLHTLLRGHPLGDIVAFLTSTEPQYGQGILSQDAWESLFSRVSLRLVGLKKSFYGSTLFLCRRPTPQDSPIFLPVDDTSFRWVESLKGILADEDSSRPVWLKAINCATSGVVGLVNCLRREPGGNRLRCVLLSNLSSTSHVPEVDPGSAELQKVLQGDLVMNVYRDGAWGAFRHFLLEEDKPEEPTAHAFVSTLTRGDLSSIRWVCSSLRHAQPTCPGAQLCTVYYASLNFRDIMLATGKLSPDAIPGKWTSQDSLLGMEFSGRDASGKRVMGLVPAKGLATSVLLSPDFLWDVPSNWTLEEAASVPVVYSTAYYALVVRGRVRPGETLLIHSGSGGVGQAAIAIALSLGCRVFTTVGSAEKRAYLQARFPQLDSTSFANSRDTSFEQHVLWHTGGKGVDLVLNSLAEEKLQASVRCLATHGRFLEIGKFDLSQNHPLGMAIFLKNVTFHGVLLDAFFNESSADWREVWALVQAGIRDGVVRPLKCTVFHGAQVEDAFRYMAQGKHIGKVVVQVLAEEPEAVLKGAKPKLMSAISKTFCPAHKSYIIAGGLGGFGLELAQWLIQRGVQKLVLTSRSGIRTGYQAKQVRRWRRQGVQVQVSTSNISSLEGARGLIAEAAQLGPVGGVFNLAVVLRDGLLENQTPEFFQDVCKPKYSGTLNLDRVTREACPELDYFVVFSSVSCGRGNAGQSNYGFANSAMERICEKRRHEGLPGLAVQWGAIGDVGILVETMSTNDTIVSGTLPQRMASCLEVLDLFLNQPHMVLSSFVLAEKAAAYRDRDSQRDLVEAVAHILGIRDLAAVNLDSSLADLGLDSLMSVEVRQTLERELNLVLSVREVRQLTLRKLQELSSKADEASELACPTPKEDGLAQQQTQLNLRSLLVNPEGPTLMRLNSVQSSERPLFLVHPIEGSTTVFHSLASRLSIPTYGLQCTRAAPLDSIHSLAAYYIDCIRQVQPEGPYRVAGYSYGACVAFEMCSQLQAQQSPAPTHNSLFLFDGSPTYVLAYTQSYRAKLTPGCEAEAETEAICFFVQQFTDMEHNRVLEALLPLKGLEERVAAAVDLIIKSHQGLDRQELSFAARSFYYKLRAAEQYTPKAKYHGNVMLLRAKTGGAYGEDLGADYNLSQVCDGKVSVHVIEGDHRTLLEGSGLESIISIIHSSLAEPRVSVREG
Procedure: as §1

HSPA8 = target: T5, HSPA8 (human, UniProt P11142 2-646)
T5 construct: endogenous protein co-purified from WM115 lysate
T5 sequence (P11142 2-646 limits assumed): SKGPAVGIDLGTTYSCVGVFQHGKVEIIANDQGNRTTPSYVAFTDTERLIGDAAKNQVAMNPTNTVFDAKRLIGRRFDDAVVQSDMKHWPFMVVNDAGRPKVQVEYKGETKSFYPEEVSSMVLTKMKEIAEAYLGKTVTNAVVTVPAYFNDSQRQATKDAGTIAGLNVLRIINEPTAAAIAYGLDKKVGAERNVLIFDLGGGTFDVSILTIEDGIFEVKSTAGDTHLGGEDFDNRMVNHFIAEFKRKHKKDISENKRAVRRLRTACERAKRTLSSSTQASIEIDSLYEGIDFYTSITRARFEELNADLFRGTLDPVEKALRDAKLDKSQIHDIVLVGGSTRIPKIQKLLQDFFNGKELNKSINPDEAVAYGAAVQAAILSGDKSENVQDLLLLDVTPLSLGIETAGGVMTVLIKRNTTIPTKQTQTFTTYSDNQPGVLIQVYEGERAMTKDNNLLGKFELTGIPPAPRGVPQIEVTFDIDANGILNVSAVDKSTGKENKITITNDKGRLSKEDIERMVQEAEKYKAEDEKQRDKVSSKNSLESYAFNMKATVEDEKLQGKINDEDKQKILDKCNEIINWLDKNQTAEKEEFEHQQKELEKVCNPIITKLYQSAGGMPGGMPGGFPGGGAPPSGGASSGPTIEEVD
Procedure: as §1

PFKFB3 = target: T6, PFKFB3 (human, UniProt Q16875 1-520, limits assumed)
T6 construct: endogenous protein co-purified from WM115 lysate
T6 sequence (Q16875 whole entry): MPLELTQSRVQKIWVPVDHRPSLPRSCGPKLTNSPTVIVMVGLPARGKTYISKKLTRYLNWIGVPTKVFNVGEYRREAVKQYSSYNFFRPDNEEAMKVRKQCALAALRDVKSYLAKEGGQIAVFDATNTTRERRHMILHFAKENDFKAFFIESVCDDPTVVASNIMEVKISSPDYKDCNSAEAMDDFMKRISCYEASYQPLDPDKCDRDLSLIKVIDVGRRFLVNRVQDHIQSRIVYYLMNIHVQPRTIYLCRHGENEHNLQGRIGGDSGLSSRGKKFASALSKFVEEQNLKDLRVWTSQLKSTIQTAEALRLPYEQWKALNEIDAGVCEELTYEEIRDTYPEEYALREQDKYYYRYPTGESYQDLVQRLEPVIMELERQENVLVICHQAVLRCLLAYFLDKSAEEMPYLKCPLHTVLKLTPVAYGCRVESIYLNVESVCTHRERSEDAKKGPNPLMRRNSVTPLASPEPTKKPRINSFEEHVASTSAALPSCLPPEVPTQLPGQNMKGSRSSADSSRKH
Procedure: as §1

PRPF31 = target: T7, PRPF31 (human, UniProt Q8WWY3 1-499)
T7 sequence (looked up): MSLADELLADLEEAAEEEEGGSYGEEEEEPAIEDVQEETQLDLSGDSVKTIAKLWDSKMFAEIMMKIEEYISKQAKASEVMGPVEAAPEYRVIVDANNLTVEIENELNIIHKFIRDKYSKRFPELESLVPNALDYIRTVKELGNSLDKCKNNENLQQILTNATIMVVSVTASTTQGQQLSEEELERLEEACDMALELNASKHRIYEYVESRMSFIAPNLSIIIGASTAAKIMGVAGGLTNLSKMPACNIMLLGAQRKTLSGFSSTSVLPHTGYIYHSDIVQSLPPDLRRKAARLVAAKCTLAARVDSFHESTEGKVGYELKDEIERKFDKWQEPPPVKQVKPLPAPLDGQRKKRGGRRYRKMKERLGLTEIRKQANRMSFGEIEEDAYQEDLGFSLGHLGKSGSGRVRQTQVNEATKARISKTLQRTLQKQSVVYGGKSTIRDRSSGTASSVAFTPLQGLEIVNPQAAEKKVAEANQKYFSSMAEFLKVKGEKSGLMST
Procedure: as §1

PFKFB2 = target: T8, PFKFB2 (human, UniProt O60825 2-505, limits assumed)
T8 construct: endogenous protein co-purified from WM115 lysate
Procedure: as §1

DYNC1H1 = target: T9, DYNC1H1 (human, UniProt Q14204 2-4646)
T9 construct: endogenous protein co-purified from WM115 lysate
Procedure: as §1

HSPA5 = target: T10, HSPA5 (human, UniProt P11021 19-654)
T10 construct: endogenous protein co-purified from WM115 lysate
T10 sequence (P11021 19-654 limits assumed): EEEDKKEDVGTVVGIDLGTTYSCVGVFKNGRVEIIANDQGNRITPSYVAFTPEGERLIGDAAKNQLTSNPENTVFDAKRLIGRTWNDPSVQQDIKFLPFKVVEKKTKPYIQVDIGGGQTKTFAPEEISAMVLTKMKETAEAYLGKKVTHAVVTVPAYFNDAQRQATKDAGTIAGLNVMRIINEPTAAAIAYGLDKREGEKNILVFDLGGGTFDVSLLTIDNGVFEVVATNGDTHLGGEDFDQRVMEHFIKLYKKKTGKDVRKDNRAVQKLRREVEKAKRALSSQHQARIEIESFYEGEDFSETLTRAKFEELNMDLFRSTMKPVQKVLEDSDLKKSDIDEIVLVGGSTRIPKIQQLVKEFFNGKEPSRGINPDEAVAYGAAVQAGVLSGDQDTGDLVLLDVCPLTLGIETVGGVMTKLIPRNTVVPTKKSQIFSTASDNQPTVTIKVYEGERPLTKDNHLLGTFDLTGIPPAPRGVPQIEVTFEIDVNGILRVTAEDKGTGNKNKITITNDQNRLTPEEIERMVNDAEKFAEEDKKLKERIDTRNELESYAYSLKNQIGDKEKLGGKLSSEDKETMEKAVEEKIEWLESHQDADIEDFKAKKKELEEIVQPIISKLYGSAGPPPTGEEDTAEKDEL
Procedure: as §1

[1] = target: T11, PRMT5 (endogenous, WM115 cells) (human, UniProt O14744 2-637)
T11 construct: endogenous protein co-purified from WM115 lysate; also called Protein arginine methyltransferase 5
Procedure: as §1

HSPD1 = target: T12, HSPD1 (human, UniProt P10809 27-573)
T12 construct: endogenous protein co-purified from WM115 lysate
Procedure: as §1

PDIA6 = target: T13, PDIA6 (human, UniProt Q15084 20-440)
T13 construct: endogenous protein co-purified from WM115 lysate
T13 sequence (looked up): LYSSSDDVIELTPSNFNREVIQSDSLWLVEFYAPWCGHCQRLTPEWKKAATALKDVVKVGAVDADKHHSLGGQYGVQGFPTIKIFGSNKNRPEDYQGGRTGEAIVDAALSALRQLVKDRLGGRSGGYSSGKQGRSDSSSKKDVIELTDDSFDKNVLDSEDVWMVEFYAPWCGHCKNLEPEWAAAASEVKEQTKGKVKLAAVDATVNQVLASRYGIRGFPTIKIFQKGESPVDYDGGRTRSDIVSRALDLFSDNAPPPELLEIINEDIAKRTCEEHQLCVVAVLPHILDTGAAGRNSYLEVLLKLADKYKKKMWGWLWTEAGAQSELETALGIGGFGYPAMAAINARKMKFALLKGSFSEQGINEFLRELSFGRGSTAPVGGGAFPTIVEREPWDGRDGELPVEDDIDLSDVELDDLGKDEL
Procedure: as §1

Measured: binding result

B1: Flag-tagged SHARPIN (other, human, UniProt Q9H0F6 1-387, looked up)
chain: MAPPAGGAAAAASDLGSAAVLLAVHAAVRPLGAGPDAEAQLRRLQLSADPERPGRFRLELLGAGPGAVNLEWPLESVSYTIRGPTQHELQPPPGGPGTLSLHFLNPQEAQRWAVLVRGATVEGQNGSKSNSPPALGPEACPVSLPSPPEASTLKGPPPEADLPRSPGNLTEREELAGSLARAIAGGDEKGAAQVAAVLAQHRVALSVQLQEACFPPGPIRLQVTLEDAASAASAASSAHVALQVHPHCTVAALQEQVFSELGFPPAVQRWVIGRCLCVPERSLASYGVRQDGDPAFLYLLSAPREAPATGPSPQHPQKMDGELGRLFPPSLGLPPGPQPAASSLPSPLQPSWSCPSCTFINAPDRPGCEMCSTQRPCTWDPLAAAST
notes: also called Flag-SHARPIN; not shown: FLAG tag
binds: all assays above
